Test results as given in patent US20040053332A1.

Biological target: ER-DEVD-Luc (mouse; firefly)
Assay: cell-based or functional assay

caspase-3 (from UniProt P42574 29-277)
cleavage of the 90 kDa fusion to a 60 kDa polypeptide (western blot, 293T cells treated with staurosporine): 50%
